According to paper PMC12095075:

Target: HIF2A N-terminal region (bHLH-PAS);BMAL1 N-terminal region (bHLH-PAS) (mouse;mouse) (UniProt P97481+Q9WTL8)
Assay: SPR
Details: 1:1 fit, error is fit error, SPR: 20 mM MES pH 5.5, 300 mM NaCl, 0.05% Tween-20, 0.02% BSA, EMSA: 10 mM MES pH 6.0, 50 mM KCl, 1 mM DTT, 2.5% glycerol, 0.05% NP-40, 5 mM MgCl2, room …

Chain of HIF2A N-terminal region (bHLH-PAS);BMAL1 N-terminal region (bHLH-PAS) (mouse;mouse) (P97481 3-361, chain 1 of 2): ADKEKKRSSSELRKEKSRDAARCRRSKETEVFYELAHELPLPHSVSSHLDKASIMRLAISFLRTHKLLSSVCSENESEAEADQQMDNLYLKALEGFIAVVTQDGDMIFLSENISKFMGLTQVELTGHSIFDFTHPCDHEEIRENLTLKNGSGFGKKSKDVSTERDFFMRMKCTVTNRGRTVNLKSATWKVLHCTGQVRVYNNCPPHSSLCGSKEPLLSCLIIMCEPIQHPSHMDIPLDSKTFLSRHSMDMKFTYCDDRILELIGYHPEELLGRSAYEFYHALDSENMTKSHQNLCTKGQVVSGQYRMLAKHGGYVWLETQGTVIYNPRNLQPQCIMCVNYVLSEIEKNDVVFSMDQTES
Chain of HIF2A N-terminal region (bHLH-PAS);BMAL1 N-terminal region (bHLH-PAS) (mouse;mouse) (Q9WTL8 68-488, chain 2 of 2): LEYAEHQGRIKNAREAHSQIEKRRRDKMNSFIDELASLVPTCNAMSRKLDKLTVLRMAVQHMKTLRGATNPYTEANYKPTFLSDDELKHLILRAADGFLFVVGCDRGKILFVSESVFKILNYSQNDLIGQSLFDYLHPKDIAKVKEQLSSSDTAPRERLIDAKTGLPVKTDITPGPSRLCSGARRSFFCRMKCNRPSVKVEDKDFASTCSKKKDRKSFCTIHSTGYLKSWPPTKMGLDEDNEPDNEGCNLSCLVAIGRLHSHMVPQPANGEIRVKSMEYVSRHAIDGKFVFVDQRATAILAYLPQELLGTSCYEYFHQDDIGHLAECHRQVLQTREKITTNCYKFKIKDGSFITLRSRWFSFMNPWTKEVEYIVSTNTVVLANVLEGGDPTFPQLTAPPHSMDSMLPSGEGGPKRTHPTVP

Substance	Kd (ka 1.75e5 1/(M*s), kd 8.45e-4 1/s) [nM]	Kd (ka 2.10e5 1/(M*s), kd 7.85e-4 1/s) [nM]
22-bp HRE duplex, SPR	4.84	
22-bp E-box duplex, SPR		3.74
